Assay results: patent US20170355771A1 (Biogen, published 2017)

What was measured:
[1] = molecular target: T1, biotinylated human GPIIb/IIIa ectodomain protein (human, UniProt P08514 32-993; P05106 27-718, biotinylated (site not stated)); assay: surface plasmon resonance, biotinylated GPIIb/IIIa ectodomain on a streptavidin chip, analyte at 6.2 to 500 nM, 1:1 binding model
T1 construct: extracellular domain; also called purified GPIIb/IIIa

[2] = molecular target: T1, biotinylated human GPIIb/IIIa …; assay: SPR, biotinylated GPIIb/IIIa ectodomain on streptavidin chip, fusion protein as analyte, 1:1 model
Description: The GPIIb/IIIa ectodomain protein was immobilized on an SPR chip coated with streptavidin (GE Healthcare).

T1 sequence (P08514 32-993, chain 1 of 2): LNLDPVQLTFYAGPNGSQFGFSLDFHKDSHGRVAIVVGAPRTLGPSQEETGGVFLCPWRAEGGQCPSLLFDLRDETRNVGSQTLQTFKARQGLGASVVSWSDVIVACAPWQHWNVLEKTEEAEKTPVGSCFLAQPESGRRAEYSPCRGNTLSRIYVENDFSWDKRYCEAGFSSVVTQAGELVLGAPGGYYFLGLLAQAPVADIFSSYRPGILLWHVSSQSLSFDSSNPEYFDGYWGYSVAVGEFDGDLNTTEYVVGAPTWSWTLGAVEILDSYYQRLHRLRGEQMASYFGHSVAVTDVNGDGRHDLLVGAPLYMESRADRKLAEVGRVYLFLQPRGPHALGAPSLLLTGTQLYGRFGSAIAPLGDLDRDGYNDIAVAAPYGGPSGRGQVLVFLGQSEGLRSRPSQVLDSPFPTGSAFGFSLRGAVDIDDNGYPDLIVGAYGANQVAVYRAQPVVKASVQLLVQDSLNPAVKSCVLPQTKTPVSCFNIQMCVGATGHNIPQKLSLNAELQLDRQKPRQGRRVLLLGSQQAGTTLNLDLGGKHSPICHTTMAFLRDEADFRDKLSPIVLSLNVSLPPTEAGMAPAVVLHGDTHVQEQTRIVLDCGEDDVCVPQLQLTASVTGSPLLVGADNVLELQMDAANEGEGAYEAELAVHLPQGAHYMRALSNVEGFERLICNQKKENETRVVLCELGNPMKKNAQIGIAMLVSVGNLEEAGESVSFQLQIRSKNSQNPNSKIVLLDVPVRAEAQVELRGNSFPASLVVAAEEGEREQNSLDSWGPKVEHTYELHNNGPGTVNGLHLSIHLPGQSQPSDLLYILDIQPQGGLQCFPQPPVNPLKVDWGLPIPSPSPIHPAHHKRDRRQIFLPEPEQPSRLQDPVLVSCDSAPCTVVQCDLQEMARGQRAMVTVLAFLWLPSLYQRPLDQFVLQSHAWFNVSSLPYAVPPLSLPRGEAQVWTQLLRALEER
T1 sequence (P05106 27-718, chain 2 of 2): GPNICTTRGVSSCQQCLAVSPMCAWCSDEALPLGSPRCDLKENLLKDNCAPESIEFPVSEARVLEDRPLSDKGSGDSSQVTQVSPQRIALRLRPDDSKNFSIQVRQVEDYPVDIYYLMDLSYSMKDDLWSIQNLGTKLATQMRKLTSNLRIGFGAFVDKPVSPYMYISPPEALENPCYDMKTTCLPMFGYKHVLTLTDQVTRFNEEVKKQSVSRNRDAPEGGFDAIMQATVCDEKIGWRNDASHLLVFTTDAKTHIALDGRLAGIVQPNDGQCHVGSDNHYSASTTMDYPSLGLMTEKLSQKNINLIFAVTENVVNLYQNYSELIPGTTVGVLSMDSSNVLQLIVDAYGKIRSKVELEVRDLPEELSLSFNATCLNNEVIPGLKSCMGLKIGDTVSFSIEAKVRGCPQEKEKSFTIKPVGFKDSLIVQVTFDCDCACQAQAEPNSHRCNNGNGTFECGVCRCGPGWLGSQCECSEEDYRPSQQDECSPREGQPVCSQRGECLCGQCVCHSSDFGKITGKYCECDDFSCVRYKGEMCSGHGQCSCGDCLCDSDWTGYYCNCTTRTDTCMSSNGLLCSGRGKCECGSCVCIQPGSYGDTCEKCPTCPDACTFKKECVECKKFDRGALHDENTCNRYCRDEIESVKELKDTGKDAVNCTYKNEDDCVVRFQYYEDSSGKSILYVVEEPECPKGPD

koff [1]: 0.0174 s⁻¹ | kon [1]: 23700 M⁻¹ s⁻¹ | Kd [2]: 730 nM
B1: FVII-250/Fab-062 (other)
chain: ANAFLEELRPGSLERECKEEQCSFEEAREIFKDAERTKLFWISYSDGDQCASSPCQNGGSCKDQLQSYICFCLPAFEGRNCETHKDDQLICVNENGGCEQYCSDHTGTKRSCRCHEGYSLLADGVSCTPTVEYPCGKIPILEKRNASKPQGRIVGGKVCPKGECPWQVLLLVNGAQLCGGTLINTIWVVSAAHCFDKIKNWRNLIAVLGEHDLSEHDGDEQSRRVAQVIIPSTYVPGTTNHDIALLRLHQPVVLTDHVVPLCLPERTFSERTLAFVRFSLVSGWGQLLDRGATALELMVLNVPRLMTQDCLQQSRKVGDSPNITEYMFCAGYSDGSKDSCKGDSGGPHATHYRGTWYLTGIVSWGQGCATVGHFGVYTRVSQYIEWLQKLMRSEPRPGVLLRAPFPGGGGSGGGGSGGGGSGGGGSGGGGSGGGGSEIVMTQSPATLSVSPGERATLSCRASSSVNYMYWYQQKPGQAPRLLIYYTSNLAPGIPARFSGSGSGTEFTLTISSLQSEDFAVYYCQQFSSSPWTFGQGTKVEIKRTVAAPSVFIFPPSDEQLKSGTASVVCLLNNFYPREAKVQWKVDNALQSGNSQESVTEQDSKDSTYSLSSTLTLSKADYEKHKVYACEVTHQGLSSPVTKSFNRGEC
heavy: EGTSESATPESGPGSEPATSGSETPGTSESATPESGPGSEPATSGSETPGTSESATPESGPGTSTEPSEGSAPGSPAGSPTSTEEGTSESATPESGPGSEPATSGSETPGTSESATPESGPGSPAGSPTSTEEGSPAGSPTSTEEGTSTEPSEGSAPGTSESATPESGPGTSESATPESGPGTSESATPESGPGSEPATSGSETPGSEPATSGSETPGSPAGSPTSTEEGTSTEPSEGSAPGTSTEPSEGSAPGSEPATSGSETPGTSESATPESGPGTSTEPSEGSAPEVQLVESGGGLVKPGGSLRLSCAASGFTFSAYAMSWVRQAPGKGLVWVASISSGGTTYYPDSVKRQFTISRDNAKNTLYLQMNSLRAEDTAVYYCTRGGDYGYALDYWGQGTLVTVSSASTKGPSVFPLAPSSKSTSGGTAALGCLVKDYFPEPVTVSWNSGALTSGVHTFPAVLQSSGLYSLSSVVTVPSSSLGTQTYICNVNHKPSNTKVDKKVEPKSC
notes: also called Fab-250/Fab-062 (as printed once)
